The target of test [1] is T1, human CD8 on human T cells (human, UniProt P01732 22-235).
T1 construct: whole, on cells; the antibodies were raised against human CD8 alpha; also called CD8 on human CD8+ T cells; hCD8
The test can be described thus: flow cytometry on human CD8+ T cells, titration. As for the experimental part:
(§1) The 16 above-referenced humanized 03A01-derived anti-CD8 antibodies were screened for their ability to bind human CD8 by evaluating binding to CD8⁺ T cells. The non-humanized parent (“03-Parent”) and the non-humanized parent comprising a heavy chain D64E liability mutation (“03-Parent-VH-D64E”) were used as controls. […] Cells were washed with 1×phosphate buffered saline (PBS) containing 1 mg/mL bovine serum albumin (PBS/BSA) and then stained with a 1:100 dilution of DyLight650-conjugated anti-human IgG H+L polyclonal antibody (ThermoFisher cat. no. Sa5-10129) in PBS/BSA. Following a 20-30 min incubation at 4° C., the cells were washed once with PBS/BSA, and then resuspended in PBS/BSA for analysis on a FACSCelesta using Diva software (BD Biosciences). The resulting data were analyzed using FlowJo. Data were quantified and reported as Max fluorescence intensity (MFI) of human IgG-Fc. […] Complete replacement of the LCDR1 (antibodies comprising VK4) eliminated binding to the CD8⁺ T cells.
(§2) The binding affinities of five of the above-referenced humanized anti-CD8 antibodies to human CD8 were determined by evaluating binding to CD8 human T cells using the method described above. Binding to human CD8+ T cells was tested at 7 serial 5-fold dilutions of each humanized 03A01 variant (from 50 nM to 3.2 pM). The resulting data were analyzed using FlowJo.
On the technique in general: A flow cytometer gives signals particle by particle.

Test [2] addresses T1, human CD8 on human T cells. The test can be described thus: flow cytometry on human CD8+ T cells, titration, apparent KD. As to the method: as §1, §2
In test [3] the target is T1, human CD8 on human T cells. The test can be described thus: flow cytometry, human CD8+ T cells, antibody at 5 nM, anti-human IgG detection (MFI AF647). As for the experimental part: as §1
Test [4] has as its target T1, human CD8 on human T cells. The test can be described thus: flow cytometry, human CD8+ T cells, antibody at 0.2 nM, anti-human IgG detection (MFI AF647). As to the method:
(§3) The 24 humanized 02A01-derived anti-CD8 antibodies (excluding 02A01-VK3(D30E/N35Q)) were screened for their ability to bind human CD8 by evaluating binding to CD8+ T cells. The non-humanized parent (“02-Parent”) and the non-humanized parent comprising a heavy chain M39L liability mutation (“02-Parent-VH-M39L”) were used as controls. […] Cells were washed with 1×phosphate buffered saline (PBS) containing 1 mg/mL bovine serum albumin (PBS/BSA) and then stained with a 1:100 dilution of DyLight650-conjugated anti-human IgG H+L polyclonal antibody (ThermoFisher cat. no. Sa5-10129) in PBS/BSA. Following a 20-30 min incubation at 4° C., the cells were washed once with PBS/BSA, and then resuspended in PBS/BSA for analysis on a FACSCelesta using Diva software (BD Biosciences). The resulting data were analyzed using FlowJo. Data were quantified and reported as Max fluorescence intensity (MFI) of human IgG-Fc. […] Complete replacement of the HCDR1 (antibodies comprising VH5) eliminated binding to the CD8+ T cells.

For test [5], the target named is T1, human CD8 on human T cells. Nature of the test: flow cytometry on human CD8+ T cells, titration. As for the experimental part:
as §3
(§4) Binding to human CD8+ T cells was tested at 7 serial 5-fold dilutions of each tested humanized 02A01 variant (from 50 nM to 3.2 pM). The resulting data were analyzed using FlowJo.
This is another data set of the same source.

For test [6], the target named is T1, human CD8 on human T cells. Nature of the test: flow cytometry on human CD8+ T cells, titration, apparent KD. As to the method: as §3, §4
This is another data set of the same source.

Test [7] has as its target T2, human CD8α/β (human, UniProt P01732 22-182; P10966 22-170).
T2 construct: Soluble heterodimer used in SPR and in the Carterra binning (there printed only as CD8α/β); also called hCD8α/β
Nature of the test: SPR, antibody captured on Protein A chip, hCD8α/β as analyte, 1:1 fit. As for the experimental part:
(§5) The binding affinities of six of the humanized anti-CD8 antibodies to human CD8 were also determined by surface plasmon resonance (SPR). Briefly, equilibrium dissociation constants for human CD8α/β were determined using a real-time SPR biosensor using a Protein A Sensor Chip (Cytiva) to capture purified anti-CD8 monoclonal antibodies at a concentration of 0.5 nM. SPR binding studies were performed in a buffer composed of Phosphate buffered saline, pH 7.2 containing 0.05% v/v Surfactant P20 (PBS-P20 buffer). Different concentrations of hCD8α/β prepared in PBS-P20 running buffer (ranging from 500 nM to 7.8 nM, 2-fold dilutions) were injected over the anti-CD8 monoclonal antibody captured surface. Association of hCD8α/β to the captured monoclonal antibody was monitored for 400 seconds and the dissociation of hCD8α/β in PBS-P20 running buffer was monitored for 600 sec. All of the binding kinetics experiments were performed at 25° C. Kinetic association (kₐ) and dissociation (kd) rate constants were determined by fitting the real-time sensorgrams to a 1:1 binding model using Scrubber 2.0c curve fitting software.
Background: Surface plasmon resonance follows binding to a sensor surface in real time, without labels.

Test [8] has as its target T2, human CD8α/β. Nature of the test: SPR, antibody captured on Protein A chip, hCD8α/β as analyte. As for the experimental part:
as §5

Read-outs that look alike come from different tables or passages of the source.

T1 sequence (P01732 22-235): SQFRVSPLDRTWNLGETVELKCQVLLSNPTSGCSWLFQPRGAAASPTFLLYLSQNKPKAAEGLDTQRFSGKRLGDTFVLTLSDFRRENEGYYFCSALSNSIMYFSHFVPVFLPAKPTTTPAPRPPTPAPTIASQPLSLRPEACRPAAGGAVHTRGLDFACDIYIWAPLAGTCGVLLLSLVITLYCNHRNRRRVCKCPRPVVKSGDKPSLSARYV
T2 sequence (P01732 22-182, chain 1 of 2): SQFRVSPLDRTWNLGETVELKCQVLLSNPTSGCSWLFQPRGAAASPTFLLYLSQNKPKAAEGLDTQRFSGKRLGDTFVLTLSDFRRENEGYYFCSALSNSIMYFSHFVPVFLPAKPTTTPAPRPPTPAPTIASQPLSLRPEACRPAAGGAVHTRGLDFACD
T2 sequence (P10966 22-170, chain 2 of 2): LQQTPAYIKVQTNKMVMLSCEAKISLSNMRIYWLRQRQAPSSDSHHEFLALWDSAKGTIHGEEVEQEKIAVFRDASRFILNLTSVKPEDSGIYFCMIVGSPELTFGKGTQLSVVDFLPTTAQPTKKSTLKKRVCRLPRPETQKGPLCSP

B1: humanized 03A01-VH2-VK2 (antibody, human IgG1, V domains shown)
VH: EVQFQESGPGLVKPSQTLSLTCTVSGYSITSDFAWNWIRQPPGKGLEWMGYISYSGDTNYNPSLRSRITISRDTSKNQFSLKLSSVTAADTAVYYCTIRGYYTDSAFVFWGQGTLVTVSS
VL: DIQMTQSPSTLSVSVGDRVTITCKASDHINNWLAWYQQKPGKAPKLLISGATSLETGVPSRFSGSGSGLEYTLTISSLQPDDFATYYCQQYWNSPFTFGQGTKLEIK
notes: human IgG1 format; also called 03-VH2/VK2
Turning to B1, in test [1], the “Fold Change to Parental Apparent KD” value was determined as 2 fold. In test [2], the Kd came out at 1.84 nM.

B2: humanized 03A01-VH3-VK1 (antibody, human IgG1, V domains shown)
VH: EVQFQESGPGLVKPSQTLSLTCTVSGYSITSDFAWNWIRQPPGKGLEWMGYISYSGDTNYNPSLKSRVTISRDTSKNQFSLKLSSVTAADTAVYYCTIRGYYTDSAFVFWGQGTLVTVSS
VL: DIQMTQSSSTLSVSLGDRVTITCKASDHINNWLAWYQQKPGKAPRLLISGATSLETGVPSRFSGSGSGLEYTLTISSLQPDDFATYYCQQYWNSPFTFGQGTKLEIK
notes: human IgG1 format; also called 03-VH3/VK1
Consider B2, for which the “Fold Change to Parental Apparent KD” value in test [1] is 1.8 fold. The Kd in test [2] worked out at 1.65 nM.

B3: humanized 03A01-VH3-VK4 (antibody, human IgG1, V domains shown)
VH: EVQFQESGPGLVKPSQTLSLTCTVSGYSITSDFAWNWIRQPPGKGLEWMGYISYSGDTNYNPSLKSRVTISRDTSKNQFSLKLSSVTAADTAVYYCTIRGYYTDSAFVFWGQGTLVTVSS
VL: DIQMTQSPSTLSVSVGDRVTITCRASQSISSWLAWYQQKPGKAPKLLISGATSLETGVPSRFSGSGSGLEYTLTISSLQPDDFATYYCQQYWNSPFTFGQGTKLEIK
notes: human IgG1 format; VK4 has the LCDR1 of the top human germline hit
With B3, in test [3], the binding result is reported as “no binding (tested: 5 nM)”.

B4: humanized 03A01-VH1-VK3 (antibody, human IgG1, V domains shown)
VH: EVQFQESGPGLVKPSQTLSLTCTVTGYSITSDFAWNWIRQPPGKELEWMGYISYSGDTNYNPSLRSRITISRDTSKNQFSLKLSSVTAADTATYYCTIRGYYTDSAFVFWGQGTLVTVSS
VL: DIQMTQSPSTLSASVGDRVTITCKASDHINNWLAWYQQKPGKAPKLLISGATSLETGVPSRFSGSGSGLEYTLTISSLQPDDFATYYCQQYWNSPFTFGQGTKLEIK
notes: human IgG1 format; also called 03-VH1/VK3
With B4, the “Fold Change to Parental Apparent KD” value in test [1] is 1.7 fold. For the same molecule, in test [2], the Kd was 1.6 nM.

B5: humanized 03A01-VH4-VK4 (antibody, human IgG1, V domains shown)
VH: EVQFQESGPGLVKPSQTLSLTCTVSGYSITSDFAWNWIRQPPGKGLEWIGYISYSGDTYYNPSLKSRVTISRDTSKNQFSLKLSSVTAADTAVYYCTIRGYYTDSAFVFWGQGTLVTVSS
VL: DIQMTQSPSTLSVSVGDRVTITCRASQSISSWLAWYQQKPGKAPKLLISGATSLETGVPSRFSGSGSGLEYTLTISSLQPDDFATYYCQQYWNSPFTFGQGTKLEIK
notes: as for B3
With B5, in test [3], the binding result was “no binding (tested: 5 nM)”.

B6: humanized 03A01-VH3-VK3 (antibody, human IgG1, V domains shown)
VH: EVQFQESGPGLVKPSQTLSLTCTVSGYSITSDFAWNWIRQPPGKGLEWMGYISYSGDTNYNPSLKSRVTISRDTSKNQFSLKLSSVTAADTAVYYCTIRGYYTDSAFVFWGQGTLVTVSS
VL: DIQMTQSPSTLSASVGDRVTITCKASDHINNWLAWYQQKPGKAPKLLISGATSLETGVPSRFSGSGSGLEYTLTISSLQPDDFATYYCQQYWNSPFTFGQGTKLEIK
notes: human IgG1 format; also called 03-VH3/VK3
In the case of B6, the “Fold Change to Parental Apparent KD” value in test [1] is 2.1 fold. Besides, the Kd in test [2] came to 1.98 nM.

B7: humanized 03A01-VH2-VK4 (antibody, human IgG1, V domains shown)
VH: EVQFQESGPGLVKPSQTLSLTCTVSGYSITSDFAWNWIRQPPGKGLEWMGYISYSGDTNYNPSLRSRITISRDTSKNQFSLKLSSVTAADTAVYYCTIRGYYTDSAFVFWGQGTLVTVSS
VL: DIQMTQSPSTLSVSVGDRVTITCRASQSISSWLAWYQQKPGKAPKLLISGATSLETGVPSRFSGSGSGLEYTLTISSLQPDDFATYYCQQYWNSPFTFGQGTKLEIK
notes: as for B3
For B7, the binding result in test [3] was “no binding (tested: 5 nM)”.

B8: humanized 03A01-VH2-VK3 (antibody, human IgG1, V domains shown)
VH: EVQFQESGPGLVKPSQTLSLTCTVSGYSITSDFAWNWIRQPPGKGLEWMGYISYSGDTNYNPSLRSRITISRDTSKNQFSLKLSSVTAADTAVYYCTIRGYYTDSAFVFWGQGTLVTVSS
VL: DIQMTQSPSTLSASVGDRVTITCKASDHINNWLAWYQQKPGKAPKLLISGATSLETGVPSRFSGSGSGLEYTLTISSLQPDDFATYYCQQYWNSPFTFGQGTKLEIK
notes: human IgG1 format; also called 03-VH2/VK3
As for B8, the “Fold Change to Parental Apparent KD” value in test [1] worked out at 2.1 fold. In addition, the Kd in test [2] worked out at 1.91 nM.

B9: humanized 03A01-VH1-VK4 (antibody, human IgG1, V domains shown)
VH: EVQFQESGPGLVKPSQTLSLTCTVTGYSITSDFAWNWIRQPPGKELEWMGYISYSGDTNYNPSLRSRITISRDTSKNQFSLKLSSVTAADTATYYCTIRGYYTDSAFVFWGQGTLVTVSS
VL: DIQMTQSPSTLSVSVGDRVTITCRASQSISSWLAWYQQKPGKAPKLLISGATSLETGVPSRFSGSGSGLEYTLTISSLQPDDFATYYCQQYWNSPFTFGQGTKLEIK
notes: as for B3
Consider B9, for which the binding result in test [3] is reported as “no binding (tested: 5 nM)”.

B10: humanized 02A01-VH5-VK1 (antibody, human IgG1, V domains shown)
VH: EVQLVQSGAEVKKPGATLKISCKASGYTFTDYYMHWVQQAPGKGLEWIGLVNPNNGGNIYNQNFKGRATLTVDTSTSTAYMELSSLRSEDTSVYYCGRVPLYTSHGMDYWGQGTLVTVSS
VL: EIVLTQSPATLSVSPGERATISCRASESVDSYDINSMHWYQQKPGQPPRLLIYRASHLQSGIPARFSGSGSRTDFTLTISSVEPEDFATYYCQQSNEDPLTFGQGTKLEIK
notes: human IgG1 format; VH5 has the HCDR1 of the top human germline hit
As for B10, in test [4], the binding result is on record as “no binding (tested: 0.2 nM)”.

B11: humanized 02A01-VH5-VK2 (antibody, human IgG1, V domains shown)
VH: EVQLVQSGAEVKKPGATLKISCKASGYTFTDYYMHWVQQAPGKGLEWIGLVNPNNGGNIYNQNFKGRATLTVDTSTSTAYMELSSLRSEDTSVYYCGRVPLYTSHGMDYWGQGTLVTVSS
VL: EIVLTQSPATLSVSPGERATISCRASESVDSYDINSMHWYQQKPGQAPRLLIYRASHLQSGIPARFSGSGSRTDFTLTISSVEPEDFATYYCQQSNEDPLTFGQGTKLEIK
notes: as for B10
With B11, the binding result in test [4] was “no binding (tested: 0.2 nM)”.

B12: humanized 02A01-VH3-VK3 (antibody, human IgG1, V domains shown)
VH: EVQLVQSGAEVKKPGATLKISCKASGYTFTDFTMHWVQQAPGKGLEWIGLVNPNNGGNIYAEKFQGRATLTVDTSTSTAYMELSSLRSEDTSVYYCGRVPLYTSHGMDYWGQGTLVTVSS
VL: EIVLTQSPATLSLSPGERATISCRASESVDSYDINSMHWYQQKPGQAPRLLIYRASHLQSGIPARFSGSGSRTDFTLTISSLEPEDFATYYCQQSNEDPLTFGQGTKLEIK
notes: human IgG1 format; also called 02-VH3/VK3
With B12, in test [5], the “Fold Change to Parental Apparent KD” value amounted to 1.58 fold and the “Maximum CD8+ T cell Binding (MFI)” value is 2540 MFI. For the same molecule, the Kd in test [6] was 0.09 nM. Moreover, the Kd in test [7] came out at 22 nM. The “Fold Change to Parental Calculated KD” value in test [8] is 2.37 fold.

These data come from patent US20260055186A1 (REPERTOIRE IMMUNE MEDICINES, published 2026).
